Assay results as given in patent US20230399394A1 (SUNSHINE GUOJIAN PHARMACEUTICAL SHANGHAI, published 2023).
Positions count from the first letter of the chain named. In names and notes the source's numbering stands.

T1: Human IL-33-his (human, UniProt O95760 112-270, biotinylated with EZ-Link NHS-Biotin where used as IL-33-his-biotin)
T1 construct: Used plain (SPR, cell assays) and biotinylated (ELISA); also called IL-33-his-biotin
T1 sequence: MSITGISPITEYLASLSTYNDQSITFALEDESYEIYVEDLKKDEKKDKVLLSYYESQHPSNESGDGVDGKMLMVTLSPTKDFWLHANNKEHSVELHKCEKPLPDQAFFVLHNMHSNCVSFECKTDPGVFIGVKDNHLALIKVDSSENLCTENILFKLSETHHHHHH

B1: 871G1-Hu1 (antibody, human IgG4 S228P, kappa, V domains shown)
VH: QVQLQESGPGLVKPSETLSLTCTVSGFSLSKYGVHWIRQPPGKGLEWIGVLRAGGTISYNSALMSRVTISEDISKSQVSLKLSSVTAADTAVYYCARDHYYYSSFGGFASWGQGTLVTVSS
VL: DIQMTQSPSSVSASVGDRVTITCLASQTIGAWLAWYQQKPGKSPKLLIYAATRLADGVPSRFSGSGSGTDFTLTISSLQPEDFATYYCQQLNSTPYTFGQGTKVEIKR
notes: Humanized; also called humanized antibody 871G1-Hu1
B2: 874F7-Hu2 (antibody, human IgG4 S228P, kappa, V domains shown)
VH: QVQLQESGPGLVKPSETLSLTCTVSGFSLSKYGVHWIRQPPGKGLEWLGVLRAGGSTGYNSALMSRLTISKDSSKSQVSLKLSSVTAADTAVYYCVRDHYYYSSYGGFVYWGQGTLVTVSS
VL: B1 VL with N92D, T94S
notes: Humanized; also called humanized antibody 874F7-Hu2
B3: 871G1-Hu2 (antibody, human IgG4 S228P, kappa, V domains shown)
VH: B1 VH with I48L, V67L
VL: B1 VL
notes: Humanized; also called humanized antibody 871G1-Hu2
B4: 864F3-Hu5 (antibody, human IgG4 S228P, kappa, V domains shown)
VH: B1 VH with I48L, V67L
VL: B1 VL with V11L, G30A, A31T, N92Y, S93N
notes: Humanized; also called humanized antibody 864F3-Hu5
B5: 871G1-ch (antibody, human IgG4 S228P, kappa, V domains shown)
VH: QVHLKESGPGLVAPSQSLSITCNVSGFSLSKYGVHWIRQTPGRGLDWLGVLRAGGTISYNSALMSRLSISEDISKSQVFLKMNDLQTDDSAIYFCARDHYYYSSFGGFASWGQGTLVTVSA
VL: DIQMTQSPASQSASLGESVTITCLASQTIGAWLAWYRQQPGKSPQLLIYAATRLADGVPSRFSGSGSGTKFSFKINNLQAEDFVIYYCQQLNSTPYTFGGGTRLEMRT
notes: Chimeric: human IgG4 (S228P) and human kappa constant regions; also called chimeric antibody 871G1-ch
B6: 874F7-ch (antibody, human IgG4 S228P, kappa, V domains shown)
VH: QVQLKESGPGLVAPSHSLSITCNVSGFSLSKYGVHWIRQIPGRGLDWLGVLRAGGSTGYNSALMSRLSISKDSSKSQVFLKMNDLRTDDTAVYFCVRDHYYYSSYGGFVYWGQGTLVTVSA
VL: B5 VL with K70E, I85S, N92D, T94S
notes: Chimeric: human IgG4 (S228P) and human kappa constant regions; also called chimeric antibody 874F7-ch
B7: 864F3-Hu1 (antibody, human IgG4 S228P, kappa, V domains shown)
VH: QVQLQESGPGLVKPSETLSLTCTVSGFSLTNYGVHWIRLPPGKGLEWIGVIRAGGSSDYNSALMSRVTISKDNSKSQVSLKLSSVTAADTAVYYCARDHYFSNSYGGSPYWGQGTLVTVSS
VL: B1 VL with V11L, G30A, A31T, N92Y, S93N
notes: Humanized; also called humanized antibody 864F3-Hu1
B8: 864F3-HuG (antibody, human IgG4 S228P, kappa, V domains shown)
VH: B7 VH with L39Q, K71V, N73T, S76N, V78F
VL: B1 VL with V11L, G30A, A31T, N92Y, S93N
notes: Humanized; also called humanized antibody 864F3-HuG
B9: 864F3-Hu3 (antibody, human IgG4 S228P, kappa, V domains shown)
VH: B1 VH with E71V, I73T, S76N, V78F
VL: B1 VL with V11L, G30A, A31T, N92Y, S93N
notes: Humanized; also called humanized antibody 864F3-Hu3
B10: 874F7-HuG (antibody, human IgG4 S228P, kappa, V domains shown)
VH: B2 VH with L48I, L67V, K71V, S73T, S76N, V78F, V96A
VL: B1 VL with N92D, T94S
notes: Humanized; also called 874F7-Hµg; humanized antibody 874F7-HuG
B11: 864F3-Hu2 (antibody, human IgG4 S228P, kappa, V domains shown)
VH: B7 VH with I37V, I48L, V67L
VL: B1 VL with V11L, G30A, A31T, N92Y, S93N
notes: Humanized; also called humanized antibody 864F3-Hu2
B12: 871G1-HuG (antibody, human IgG4 S228P, kappa, V domains shown)
VH: B1 VH with E71V, I73T, S76N, V78F
VL: B1 VL
notes: Humanized; also called humanized antibody 871G1-HuG

Each binder was assayed against T1, Human IL-33-his (assay: SPR Biacore 8K, antibody captured on Protein A/G chip, IL-33-his as analyte, 1:1 model).
Experimental: A chip with covalently coupled Protein A/G (purchased from GE Healthcare, catalog number BR-1005-30) was used to capture each antibody to be tested, and the relevant operating parameters were as follows: The antibody concentration was […], the contact time was 75 s, the flow rate was […], and the regeneration contact time was 30 s. The IL-33-his antigen was diluted with HBS-EP pH7.4 buffer solution (purchased from GE Healthcare, catalog number BR-1006-69). The maximum concentration was 50 nM, and diluted to 0.39 nM by two-fold dilution. Duplicate wells and 0 concentration point well were set, and 6M guanidine hydrochloride solution was used as the regeneration buffer. The sample was injected on Biacore 8K according to the following parameters, the binding time was 180 s, the dissociation time was 900 s, the flow rate was 30 μL/min, and the regeneration contact time was 30 s. After running, Biacore 8K Evaluation Software was used to analyze the data according to the “1:1 binding kinetics model”, and the binding kinetics parameters of each antibody to IL-33 were obtained.

Kd [nM] | koff [s⁻¹] | kon [M⁻¹ s⁻¹] | Binder
1.71 | 0.000504 | 295000 | B1
2.97 | 0.000576 | 194000 | B2
1.76 | 0.000527 | 300000 | B3
1.36 | 0.000439 | 323000 | B4

These binders were tested against T1, Human IL-33-his (assay: cell-based or functional assay).

IC50 of inhibition of IFNγ secretion by NK cells induced by IL-33 [nM] | IC50 of the inhibitory effect on IL-6 expression in HUVEC cells induced by IL-33 [nM] | IC50 of the inhibitory effect on the IFN-γ secretion of PBMC induced by IL-33 [nM] | Binder
0.851 | 0.21 | 1.4 | B1
1.56 | 0.05 | 1.74 | B2
0.9 | 0.175 | 1.06 | B3
1.02 | 0.147 | 0.839 | B4

What follows are binders tested against T1, Human IL-33-his (assay: competition ELISA, antibody mixed with IL-33-his-biotin, ST2-Fc on plate; competitor ST2-Fc).
Experimental: (§1) ST2-Fc protein was diluted to 1 μg/mL with ELISA coating solution to coat ELISA plate with 100 μL/well. The plate was placed in a wet box at 4° C. for 16 h for coating. The ELISA plate was washed 3 times with PBST, and then was blocked with 2% BSA prepared in PBS at 200 μL/well at room temperature for 2 h. The plate was washed once with PBST, and was patted dry to remove the excess blocking solution. Each monoclonal antibody was diluted with 1% BSA prepared in PBST in a 3-fold gradient. The highest concentration of antibody was 10 μg/mL, and the antibody was diluted for 11 gradients. The diluted antibody was mixed 1:1 with 10 ng/ml IL-33-his-biotin, and then the mixture was added into the ELISA well at 100 μL/well. The plate was incubated at room temperature for 1 h. Each concentration was added to duplicate wells in parallel (maximum final concentration of antibody was […], final concentration of IL-33-his-biotin was 5 ng/mL). Unbound or non-specifically bound primary antibodies were washed out. According to the instructions of the antibody, HRP labeled streptavidin secondary antibody was diluted to an appropriate concentration with antibody diluent solution, then it was added to ELISA plate with 100 μL/well, and was incubated at room temperature for 1 h. The ELISA plate was washed with PBST for 5 times, and was patted dry on absorbent paper to remove excess liquid. TMB developing solution was added with 100 μL/well for development to an appropriate degree. 2M H₂SO₄ was added with 70 μL/well to terminate development, and the absorbance was measured at 450 nm on a multifunctional microplate reader. The data were analyzed.

IC50 [nM] | Binder
0.853 | B5
0.634 | B6

Each binder was assayed against T1, Human IL-33-his (assay: ELISA as Example 9, IL-33-his-biotin on streptavidin plate).

EC50 [nM] | Binder
0.255 | B5
0.177 | B6
0.191 | B1
0.249 | B7
0.136 | B2
0.76 | B8
0.138 | B9
0.17 | B10
0.181 | B11
0.176 | B3
0.187 | B12
0.146 | B4

What follows are binders tested against T1, Human IL-33-his (assay: ELISA, IL-33-his-biotin on streptavidin plate, anti-human Fc detection).
Experimental: SA protein was diluted to 2 μg/mL to coat ELISA plate at 100 μL/well overnight at 4° C. The plate was washed with PBST (PBS containing 0.05% Tween20) for 3 times, and blocked with 2% BSA prepared in PBS at 200 μL/well, at room temperature for 2 h. After the plate was washed twice with PBST, IL-33-his-biotin protein was diluted to 1 μg/mL with 1% BSA prepared in PBST, and was added to ELISA plate at 100 μL/well. The plate was incubated at room temperature for 1 h, and each monoclonal antibody was diluted with 1% BSA prepared in PBST in a 3-fold gradient. The highest concentration of antibody was 10 μg/mL, and the antibody was diluted for 12 gradients. Each diluted monoclonal antibody was added to ELISA wells with 100 μL/well, and the plate was incubated at room temperature for 1 h. Each sample was added to duplicate wells in parallel. The plate was washed with PBST for 3 times, and HRP-anti human IgG Fc secondary antibody prepared with PBST was diluted at an appropriate ratio, and was added to ELISA wells at 100 μL/well. The plate was incubated at room temperature for 1 h. After washing with PBST for 3 times, TMB developing solution was added at 100 μL/well. When the development met expectations, 2M H₂SO₄ was added to terminate the chromogenic reaction at 70 μL/well. Each reaction solution was shaken uniformly and OD450 nm was read on a microplate reader. The data was analyzed and EC₅₀ was calculated.

EC50 [nM] | Binder
0.178 | B5
0.144 | B6

Each binder was assayed against T1, Human IL-33-his (assay: competition ELISA as Example 10, ST2-Fc on plate; competitor ST2-Fc).
Experimental: as §1
The blocking effect of the above humanized antibodies on the binding of IL-33 to its receptor ST2 was determined by the ELISA method, and the relevant experimental methods were referred to Example 10.

IC50 [nM] | Binder
0.404 | B1
0.35 | B2
0.361 | B3
0.473 | B4
